Reference: a protein production outcome set (Wang et al. 2014)

Assay: label from the status in PepcDB records

Sequence | protein production
MDKHHSKKAILKLTLITTSILLMHSNQVNAEEQELKNQEQSPVIANVAQQPSPSVTTNTVEKTSVTAASASNTAKEMGDTSVKNDKTEDELLEELSKNLDTSNLGADLEEEYPSKPETTNNKESNVVTNASTAIAQKVPSAYEEVKPESKSSLAVLDTSKITKLQAITQRGKGNVVAIIDTGFDINHDIFRLDSPKDDKHSFKTKTEFEELKAKHNITYGKWVNDKIVFAHNYANNTETVADIAAAMKDGYGSEAKNISHGTHVAGIFVGNSKRPAINGLLLEGAAPNAQVLLMRIPDKIDSDKFGEAYAKAITDAVNLGAKTINMSIGKTADSLIALNDKVKLALKLASEKGVAVVVAAGNEGAFGMDYSKPLSTNPDYGTVNSPAISEDTLSVASYESLKTISEVVETTIEGKLVKLPIVTSKPFDKGKAYDVVYANYGAKKDFEGKDFKGKIALIERGGGLDFMTKITHATNAGVVGIVIFNDQEKRGNFLIPYRELPVGIISKVDGERIKNTSSQLTFNQSFEVVDSQGGNRMLEQSSWGVTAEGAIKPDVTASGFEIYSSTYNNQYQTMSGTSMASPHVAGLMTMLQSHLAEKYKGMNLDSKKLLELSKNILMSSATALYSEEDKAFYSPRQQGAGVVDAEKAIQAQYYITGNDGKAKINLKRMGDKFDITVTIHKLVEGVKELYYQANVATEQVNKGKFALKPQALLDTNWQKVILRDKETQVRFTIDASQFSQKLKEQMANGYFLEGFVRFKEAKDSNQELMSIPFVGFNGDFANLQALETPIYKTLSKGSFYYKPNDTTHKDQLEYNESAPFESNNYTALLTQSASWGYVDYVKNGGELELAPESPKRIILGTFENKVEDKTIHLLERDAANNPYFAISPNKDGNRDEITPQATFLRNVKDISAQVLDQNGNVIWQSKVLPSYRKNFHNNPKQSDGHYRMDALQWSGLDKDGKVVADGFYTYRLRYTPVAEGANSQESDFKVQVSTKSPNLPSRAQFDETNRTLSLAMPKESSYVPTYRLQLVLSHVVKDEEYGDETSYHYFHIDQEGKVTLPKTVKIGESEVAVDPKALTLVVEDKAGNFATVKLSDLLNKAVVSEKENAIVISNSFKYFDNLKKEPMFISKKEKVVNKNLEEIILVKPQTTVTTQSLSKEITKSGNEKVLTSTNNNSSRVAKIISPKHNGDSVNHTLPSTSDRATNGLFVGTLALLSSLLLYLKPKKTKNNSK | failed
MDYDQQPIMYDEVELLIQAVDQQPHPLLRLRDKAIIQLGLQGGFRRSELANLKVHYLSFMRDKLKVRLPFSKSNQQGLREWKSLPDSEPFAAYHAVKSWLNESQITDGHLFRSISRDGKTLRPYHVNDNSKPKSTFSRNSGFLNGDDIYRIIKQYCLKAGLPAQYYGAHSLRSGCVTQLHENNKDILYIMARTGHTDPRSLRHYLKPKEDLEHHHHHH | failed
MTPLAEDFGAQGDAATRARWMALVEKTLKGQSFDDALTITTADGLTIQPLYTAEDGVAVARDLRARDTDRPWDLRMRAAHPDPIRAAKDVLTDLEGGAASVLLQIDPTGVNGVAIGSADDLGKALSGVLLDLAPVALDAGFLGPKAADWLGALAKAAPNAPLAFHLDPLTAFAQTGVSPGPIESHVFNAATVATRLSATYARASLFLATGRTAHEAGGSNVEELALMTAAALAYAKALVRSGLTIEEAFGRIALGVSLDGEYFTGVAKVRAAKALWARLTESCGVTVAPTIEARSSRRMLAKADAWTNLLRLTSAGFAGAVGGADAIVLDAFTDAIGLPTAFARRQARNTQLVLMEESHLGRVADPAGGAWYLDSLTDQLARAAWASFQAIEAAGGVIKALESGLVADAVAKSRTAQEAAYADKSRKILGVTVFPNADDKPPEVETPDSSAFAVQGPDVRLPGPDSHCPALTPVRFAAAFEGA | failed
TLDLPMQMAAERALADVPQQAAIVALRPSTGEVLAVAQNAPADALGPIALTGLYPPGSTFKTVTTSAALQAGAATPDTVLPCPGTENIEGRQIPNDDEFDLGAVPLHTAFARSCNTTMGRLAVGLPPDALQQAALQFGLGVDYVTPGLTTVTGNVPVADSPAARVESGIGQGQVTATPFGMAMVAASIANGSTPSPMIVQGQPGTADKTAPTVPANVTSDLRTMMRETVTGGTATALQDIPGLLGKTGTAESGNGPAHGWFVGIKDDLAFAVFIATGDSSAPAVQAAGRFLR | failed
MISNNPNHTEYDTWAWLYNQTMGPEYSQNQLKPLEKILLPQIKPNAKILDLCCGTGQLVQTLINRGYQITGVDNSSEMLNYARKNAPNGQFLLADARYFELPLSFDAAFSTSAALNHIMTIPELQQVFQRVYSALKENGWFLFDINHHQQMQRWWRGKIAEGEIENKYAWMVTPNYNPEERQGYFQVTMFQKKTKPSSARIIKIIWRLLSPILNHNLLYKLRIKLLSVFQAKEKNWQRMDEKYFVRGHIPEEIKIALQQTGFTDIQILTLEGNPTIDDRHSAYFLCRKPVNI | failed
TISQRPYRDRVIHLLALKAYKKPELLARLQKDGVNQKDKNSLGAILQQVANLNSKDLSYTLKDYVFKELQRDWPGYSEIDRRSLESVLSRKLN | not failed
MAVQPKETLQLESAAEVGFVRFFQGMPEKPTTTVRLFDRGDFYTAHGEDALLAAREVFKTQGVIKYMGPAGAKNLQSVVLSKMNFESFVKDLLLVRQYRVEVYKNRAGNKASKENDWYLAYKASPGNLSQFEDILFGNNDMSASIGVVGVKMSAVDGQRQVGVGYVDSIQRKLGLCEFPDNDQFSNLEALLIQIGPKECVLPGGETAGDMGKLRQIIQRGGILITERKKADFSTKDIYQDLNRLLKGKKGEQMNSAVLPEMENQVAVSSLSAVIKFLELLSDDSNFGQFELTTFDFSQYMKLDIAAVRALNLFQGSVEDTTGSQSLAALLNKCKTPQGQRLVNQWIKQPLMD | failed
MSVTTTETTGTAPALPRKTLGLAMIGLAVMMTLLHYAGLLPAWLHRLPEAIIPPFATWLDAIFNFVKDDLGLLALTRLLTDGLEVVLDATANLLFGKRRWPNIGPIPWSAIAAMTAVVGYYLGGWRMALLAGGTFVWTAMIGQWDIAMQTMSVLVVAAPLAFAIGLVLGISAWKSPSFDAVLRPVLAVLQTLPFFTYLLPAVIFFKVGPTAGAVATTVYAIPPMILMTTLGLQKVSPEVVEAGKMSGCTRWQMLRHVYIPAARTEILVGVNQVIMLCLAMVVLTAFIGMPGLGAKLLAMMGSFKIGRSFEIGVTIVLLAVTLDRMSKAWVVKLPEHFERGTPFWIRHKFLLMAIGAFVGFTLIAQVVPILSEVGRKQSWSQGKEIDTLIKGFLAIDAVQAITNSIRYVLNIWVLNPLRDFMLSIPTVAFVLFISAAALLVAGRREAVLAAAFFGLVALTGWWDRSVITLYSVLAAVSIALLLGVPIGVVAARKEKTANAVLLACDTAQTFPSFIYLIPAIMLFGITATSVVMSILIFSMVPLVRYTIEGLRNVPDEMTEAADMAGATRMQKLWNVQLPLALPTMAVGFNQAIMFAFFMVIIAAFIGTQDLGQELQRTLAGTDLGKNFVLGICVTLMALTFDMVIMKWADDKKARLGLN | failed
MMDIVEIIIGFIALLMTARIFLERSRARKLLYLCCLSFCISALIALYVDSPMGGIVAITYFICSTISSNAIAYTIEQTKHIE | failed
MWRSCLRLRDGGRRLLNRPAGGPSASMSPGPTIPSPARAYAPPTERKRFYQNVSITQGEGGFEINLDHRKLKTPQAKLFTVPSEALAIAVATEWDSQQDTIKYYTMHLTTLCNTSLDNPTQRNKDQLIRAAVKFLDTDTICYRVEEPETLVELQRNEWDPIIEWAEKRYGVEISSSTSIMGPSIPAKTREVLVSHLASYNTWALQGIEFVAAQLKSMVLTLGLIDLRLTVEQAVLLSRLEEEYQIQKWGNIEWAHDYELQELRARTAAGTLFIHLCSESTTVKHKLLKE | failed
MEYKPIRKVVSGNYAAAYAALHARVQVVAAYPITPQTSIIEKIAEFIANGEADIQYIPVESEHSAMAACIGASATGARTFTATSAQGLALMHEMLHWAAGARLPIVMVDVNRAMAPPWSVWDDQTDSLSQRDTGWMQFYAENNQEVYDGVLMAYKVAETVNVPAMVVESAFILSHTYDVVEMIPQELVDEFLPPRKPLYSLANFDEPIAVGALATPNDYYEFRYKLAKAHEEAKKVIKEVGKEFGERFGRDY | failed
